In US20070212705:
Like-named read-outs stand apart in the source and are kept apart here.

B1: P. aeruginosa L-D carboxypeptidase A (PA LDC), N-terminal his-tagged, expressed from pET14b in E. coli BL21 (protein)
chain: MTSRPSSDQTWQPIDGRVALIAPASAIATDVLEATLRQLEVHGVDYHLGRHVEARYRYLAGTVEQRLEDLHNAFDMPDITAVWCLRGGYGCGQLLPGLDWGRLQAASPRPLIGFSDISVLLSAFHRHGLPAIHGPVATGLGLSPLSAPREQQERLASLASVSRLLAGIDHELPVQHLGGHKQRVEGALIGGNLTALACMAGTLGGLHAPAGSILVLEDVGEPYYRLERSLWQLLESIDARQLGAICLGSFTDCPRKEVAHSLERIFGEYAAAIEVPLYHHLPSGHGAQNRAWPYGKTAVLEGNRLRW
B2: E. coli LDC protein (muramoyl-tetrapeptide carboxypeptidase P76008) (protein)
chain: MSLFHLIAPSGYCIKQHAALRGIQRLTDAGHQVNNVEVIARRCERFAGTETERLEDLNSLARLTTPNTIVLAVRGGYGASRLLADIDWQALVARQQHDPLLICGHSDFTAIQCGLLAHGNVITFSGPMLVANFGADELNAFTEHHFWLALRNETFTIEWQGEGPTCRAEGTLWGGNLAMLISLIGTPWMPKIENGILVLEDINEHPFRVERMLLQLYHAGILPRQKAIILGSFSGSTPNDYDAGYNLESVYAFLRSRLSIPLITGLDFGHEQRTVTLPLGAHAILNNTREGTQLTISGHPVLKM

Biological target: T1, Tetrapeptide Lys substrate L-Ala-γ-D-Glu-L-Lys-D-Ala
T1 chain: AEKA

Protein	cleavage of tetrapeptide substrate	cleavage of tetrapeptide substrate (RFU, Amplex Red detection of D-alanine released) (scale: fold lower specific activity compared to E. coli LDC)	cleavage of tetrapeptide substrate (RFU, Amplex Red detection of D-alanine released)
B1	express a functional PA LDC protein that cleaved a tetrapeptide substrate in a dose dependent manner	2	–
B2	–	–	illustrates the cleavage of a tetrapeptide substrate (L-Ala-γ-D-Glu-L-Lys-D-Ala) by E. coli LDC (squares)
